Assay [1] addresses T1, EDC cross-linked ConM SOSIP soluble gp140 Env trimer (GMP) (HIV-1 (group M consensus)).
T1 construct: copies: 3 + 3
Briefly: BLI. The following applies: both partners purified.

The target in assay [2] is T2, ConM SOSIP soluble gp140 Env trimer, unmodified (GMP) (HIV-1 (group M consensus)).
T2 construct: copies: 3 + 3
The assay can be described thus: BLI. The following applies: both partners purified.

B1: PGT122 Fab (Fab, V domains shown)
VH: QVHLQESGPGLVKPSETLSLTCNVSGTLVRDNYWSWIRQPLGKQPEWIGYVHDSGDTNYNPSLKSRVHLSLDKSKNLVSLRLTGVTAADSAIYYCATTKHGRRIYGVVAFKEWFTYFYMDVWGKGTSVTVSS
VL: APTFVSVAPGQTARITCGEESLGSRSVIWYQQRPGQAPSLIIYNNNDRPSGIPDRFSGSPGSTFGTTATLTITSVEAGDEADYYCHIWDSRRPTNWVFGEGTTLIVL
notes: source: Freestyle 293F cells, serum-free, purified (HiTrap KappaSelect, Mono S)
Broadly, the Kd is a measure of binding affinity in units of concentration. Lower therefore signals higher affinity. In general, koff refers to the rate constant with which the complex falls apart. Higher therefore signals fast dissociation. Regarding B1, in assay [1], the Kd was less than 1 pM and the koff was less than 1e-07 s⁻¹. In assay [2], this molecule registered a Kd of less than 1 pM and a koff of less than 1e-07 s⁻¹.
